# Laboratory results from patent publication US20250326826A1 (CENTRO DE INGENIER A GEN TICA Y BIOTECNOLOG A, published 2025).
# Tests used:
# Recombinant human bFGF [1] = target: T1, Recombinant human bFGF (human, UniProt P09038 143-288, limits assumed); test: ELISA, coated bFGF
# T1 construct: Bought (Sigma); also called hFGF-2; human basic fibroblast growth factor
# Procedure: (§1) The plates were incubated for 1 hour at 37° C. and after several washes, the monoclonal antibody 9E10, specific for c-myc, was added. After one hour of incubation at 25° C. the plates were washed thoroughly. The binding of the fragment to the antigen in the solid phase was detected by the peroxidase activity using 100 μL/well of TMB. The reaction was stopped with 50 μL/well of stop solution, and absorbance values at 450 nm were determined in a microtiter plate reader.
# SEQ ID NO: 18 and SEQ ID NO: 19, and the bivalent Nb-VV6 and Nb-FF2, with sequences identified as SEQ ID NO: 20 and SEQ ID NO: 21, were expressed and purified as described in the Example 1. In all cases, the purity and identity of the proteins were verified by SDS-PAGE 12% and anti-polyhistidine Western Blot. […] The experimental mass of the polypeptides and the arrangement of the disulfide bridges were checked by ESI/MS-MS. […] The biological activity of the polypeptides was evaluated by ELISA for recognition of the VEGF and bFGF antigens, and by their ability to displace VEGF and bFGF binding to their respective VEGFR2 and FGFR1 receptors. […] In agreement with the increase in recognition, a decrease in the KD of the fragments was observed, calculated according to the methodology described by Beatty et al (Beatty J D, Beatty B G, Vlahos W G. J Immunol Methods. 1987 Jun. 26;100(1-2):173-9).
# [2] = target: VEGF (soluble stimulus added to cell cultures); test: cell-based or functional assay
# [3] = target: bFGF (soluble stimulus added to cell cultures); test: cell-based or functional assay
# Recombinant human bFGF [4] = target: T1, Recombinant human bFGF; test: ELISA, coated human bFGF
# Procedure: as §1, with “The 96-well plates were coated with 100 μL/well of a solution of GST-hVEGF121, GST-mVEGF120, or GST at a concentration of 20 μg/mL, or with a solution of VEGFKDR- at a concentration of 10 μg/mL, or hFGF-2 or mFGF-2 at a concentration of 5 μg/mL in 1×PBS for 16 hours at 4° C. After the plates were blocked with PBS-5% skim milk for one hour, 1:2 serial dilutions of the purified VHHs were added, starting at 2 μg/mL in PBS-0.5% skim milk. The plates” for “The plates”
# SEQ ID NO: 18 and SEQ ID NO: 19, and the bivalent Nb-VV6 and Nb-FF2, with sequences identified as SEQ ID NO: 20 and SEQ ID NO: 21, were expressed and purified as described in the Example 1. In all cases, the purity and identity of the proteins were verified by SDS-PAGE 12% and anti-polyhistidine Western Blot. […] The experimental mass of the polypeptides and the arrangement of the disulfide bridges were checked by ESI/MS-MS. The experimental and theoretical mass, for each polypeptide coincided, with errors less than 0.0015% in all cases, and the formation of intramolecular bridges between C22-C101 and C168-C247 was verified. […] The biological activity of the polypeptides was evaluated by ELISA for recognition of the VEGF and bFGF antigens, and by their ability to displace VEGF and bFGF binding to their respective VEGFR2 and FGFR1 receptors. […] Similarly, it was shown that the ability to displace the binding of antigens by their receptors was not affected.
# Recombinant human bFGF [5] = target: T1, Recombinant human bFGF; test: competition ELISA, coated bFGF, competitor Fc-FGFR1
# Procedure: (§2) The ability of VHHs to hinder receptors for binding to their ligand was assessed by ELISA, for which 96-well plates (NUNC, USA) were coated with GST-hVEGF or bFGF and blocked as described in the previous section. Serial 1:2 dilutions of the purified VHHs, from […] to […], were added and the plates and incubated for 1 h at 37° C. In this step, some wells were left where only PBS-milk was added. […] After 45 min incubation at 37° C., plates were washed with PBS-0.05% Tween. To detect receptor binding, HRP-conjugated anti-human IgG antibody was added, diluted 1:5000 in PBS-0.5% milk. After incubation for 1 h at 37° C., the plates were washed with PBS-Tween, and TMB was added. The reaction was stopped after 10 min. Wells incubated with the receptors without the addition of the antibody fragments were taken as reference for maximum binding in the absence of competitor. In this assay, in the case of inhibition of the VEGF/VEGFR axis, the CIGB166a antibody fragment was used as a positive control, and an anti-FGF polyclonal antibody was used for the FGF/FGFR axis. The percentage of inhibition of receptor binding to its ligand was calculated as follows: […]
# GST-hVEGF121 [6] = target: T2, GST-hVEGF121 (human, UniProt P15692-9 27-147); test: ELISA, coated GST-hVEGF
# T2 construct: plate coating of the VEGF ELISAs; also called human VEGF; not shown: glutathione S-transferase (GST) fusion partner
# T2 sequence (looked up): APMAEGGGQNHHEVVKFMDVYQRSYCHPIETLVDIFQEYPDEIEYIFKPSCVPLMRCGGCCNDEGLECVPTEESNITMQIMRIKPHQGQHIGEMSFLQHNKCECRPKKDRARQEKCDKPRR
# Procedure: as §1, with “The 96-well plates were coated with 100 μL/well of a solution of GST-hVEGF121, GST-mVEGF120, or GST at a concentration of 20 μg/mL, or with a solution of VEGFKDR- at a concentration of 10 μg/mL, or hFGF-2 or mFGF-2 at a concentration of 5 μg/mL in 1×PBS for 16 hours at 4° C. After the plates were blocked with PBS-5% skim milk for one hour, 1:2 serial dilutions of the purified VHHs were added, starting at 2 μg/mL in PBS-0.5% skim milk. The plates” for “The plates”
# SEQ ID NO: 18 and SEQ ID NO: 19, and the bivalent Nb-VV6 and Nb-FF2, with sequences identified as SEQ ID NO: 20 and SEQ ID NO: 21, were expressed and purified as described in the Example 1. […] The biological activity of the polypeptides was evaluated by ELISA for recognition of the VEGF and bFGF antigens, and by their ability to displace VEGF and bFGF binding to their respective VEGFR2 and FGFR1 receptors. […]
# [7] = target: VEGF (soluble stimulus added to cell cultures); test: cell-based or functional assay; remark: listed apart in the source
# [8] = target: Human VEGF (dendritic cell assay) (human, UniProt P15692-4 27-191, limits assumed); test: cell-based or functional assay
# GST-hVEGF121 [9] = target: T2, GST-hVEGF121; test: ELISA, coated GST-hVEGF; remark: listed apart in the source
# Procedure: as §1, with “The 96-well plates were coated with 100 μL/well of a solution of GST-hVEGF121, GST-mVEGF120, or GST at a concentration of 20 μg/mL, or with a solution of VEGFKDR- at a concentration of 10 μg/mL, or hFGF-2 or mFGF-2 at a concentration of 5 μg/mL in 1×PBS for 16 hours at 4° C. After the plates were blocked with PBS-5% skim milk for one hour, 1:2 serial dilutions of the purified VHHs were added, starting at 2 μg/mL in PBS-0.5% skim milk. The plates” for “The plates”
# GST-hVEGF121 [10] = target: T2, GST-hVEGF121; test: competition ELISA, coated GST-hVEGF, competitor Fc-VEGFR2
# Procedure: as §2
# The biological effect of VEGF is a consequence of its binding to two fundamental receptors (VEGFR1 and VEGFR2), so for a polypeptide that binds to VEGF to be effective in the therapeutic setting, it must block these interactions (Shibuya, Cell Structure and Function, 2001: 26: 25-35). The ability of Nb-V1 to compete with receptors 1 and 2 for binding to its ligand (VEGF) was assessed by solid phase ligand competition ELISA, as described above.
# Sequence of VEGF (soluble stimulus added to cell cultures) (P15692 whole entry): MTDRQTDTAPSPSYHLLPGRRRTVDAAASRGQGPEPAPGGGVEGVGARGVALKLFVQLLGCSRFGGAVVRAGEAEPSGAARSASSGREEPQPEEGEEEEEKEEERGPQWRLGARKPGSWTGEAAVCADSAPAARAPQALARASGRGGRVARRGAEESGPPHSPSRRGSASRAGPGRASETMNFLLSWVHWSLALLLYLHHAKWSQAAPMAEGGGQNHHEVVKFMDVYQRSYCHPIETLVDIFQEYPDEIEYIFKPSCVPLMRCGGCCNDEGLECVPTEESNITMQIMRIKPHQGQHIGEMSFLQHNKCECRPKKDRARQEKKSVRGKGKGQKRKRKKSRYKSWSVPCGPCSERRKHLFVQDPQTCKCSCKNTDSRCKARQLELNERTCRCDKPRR
# T1 sequence (P09038 143-288 limits assumed): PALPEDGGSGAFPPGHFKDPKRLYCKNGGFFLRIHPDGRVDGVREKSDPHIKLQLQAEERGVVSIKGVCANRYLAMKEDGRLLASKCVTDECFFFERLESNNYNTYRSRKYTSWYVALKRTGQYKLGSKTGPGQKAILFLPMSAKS
Binder,fold decrease of EC50 against Nb-F3 (Recombinant human bFGF [1]) [fold],"IC50, proliferation of HDMEC cells +VEGF (5 ng/ml) [2] [nM]","IC50, proliferation of HDMEC cells +bFGF (10 ng/ml) [3] [nM]",EC50 (Recombinant human bFGF [4]) [nM],IC50 (Recombinant human bFGF [5]) [nM],fold decrease of EC50 against Nb-V1 (GST-hVEGF121 [6]) [fold],"PD1 expression (%) in CD8+ cells treated with VEGF, VHH 1 µg/mL [7] [%]","PD1 expression (%) in CD8+ cells treated with VEGF, VHH 5 µg/mL [7] [%]","PD1 expression (%) in CD8+ cells treated with VEGF, VHH 10 µg/mL [7] [%]","CD86 (MFI) on dendritic cells +VEGF +LPS, VHH 1 µg/mL [8] [MFI]","CD86 (MFI) on dendritic cells +VEGF +LPS, VHH 5 µg/mL [8] [MFI]","CD86 (MFI) on dendritic cells +VEGF +LPS, VHH 10 µg/mL [8] [MFI]","MHCII (MFI) on dendritic cells +VEGF +LPS, VHH 1 µg/mL [8] [MFI]","MHCII (MFI) on dendritic cells +VEGF +LPS, VHH 5 µg/mL [8] [MFI]","MHCII (MFI) on dendritic cells +VEGF +LPS, VHH 10 µg/mL [8] [MFI]",EC50 (GST-hVEGF121 [9]) [nM],IC50 (GST-hVEGF121 [10]) [nM]
"Nb-FF2 (VHH, Bivalent monospecific tandem VHH for bFGF; with c-myc and histidine tag) QVQLVESGGGLVQPGGSLRLSCAASGTEDGRLLTLGGSWFRQAPGQGLEAVAAIGAGDRGGATYYADSVKGRFTISRDNSKNTLYLQMNSLRAEDTAVYYCTALYERQPQLAATKVARKWGQGTLVTVSSAHHSEDPSSKAPKAPAQVQLVESGGGLVQPGGSLRLSCAASGTEDGRLLTLGGSWFRQAPGQGLEAVAAIGAGDRGGATYYADSVKGRFTISRDNSKNTLYLQMNSLRAEDTAVYYCTALYERQPQLAATKVARKWGQGTLVTVSSAAAGSEQKLISEEDLNSHHHHHH",2,> 6000,50,5.86,53.5,–,–,–,–,–,–,–,–,–,–,–,–
"Nb-VV6 (VHH, Bivalent monospecific tandem VHH for VEGF, hinge spacer with cysteines replaced by alanines; with c-myc and histidine tag) QVQLVESGGGLVQPGGSLRLSCAASGNSAEDRLYNSYTWFRQAPGQGLEAVAAISSHFSAGLTYYADSVKGRFTISRDNSKNTLYLQMNSLRAEDTAVYYCEITSHASHNDAWSTPRTVWGQGTLVTVSSAHHSEDPSSKAPKAPAQVQLVESGGGLVQPGGSLRLSCAASGNSAQDRLYNSYTWFRQAPGQGLEAVAAISSHFSAGLTYYADSVKGRFTISRDNSKNTLYLQMNSLRAEDTAVYYCEITSHASHNDAWSTPRTVWGQGTLVTVSSAAAGSEQKLISEEDLNSHHHHHH",–,30,> 6000,–,–,2,52,41,36,4200,6520,18000,5110,11200,18700,1.9,5.6
